For assay [1], the target named is wild-type recombinant lipoprotein P4 (rLP4) of non-typable Haemophilus influenzae (non-typable Haemophilus influenzae) (UniProt P26093). In words: ELISA on coated wild-type rLP4; week 0 serum.
Assay [2] shares this target. The experiment in a line: ELISA on coated wild-type rLP4; preimmune serum pool. Background: An ELISA detects its analyte on a solid surface through an enzyme-linked reagent.

Several values for one entry are separate records, joined by “and”; a condition that tells them apart may be missing. Equal entries are not always repeated.

Consider pre-immune mouse serum (antibody), for which, in assay [1], the Anti-rP4 ELISA titer is 53 titer and 62 titer; the ELISA titer is 53 titer. In addition, the ELISA titer in assay [2] was 82 titer and 65 titer.

Values taken from patent US20050249746A1.
